Assays:
[1] = target: 20-mer V3 peptide of HIVSF2 (HIV-1 isolate SF-2); experiment: Friguet method, ligand in solution at equilibrium; V3 peptide of SF-2
[2] = target: 22-mer V3 peptide of HXB2 (HIV-1 HXB2 (IIIB)); experiment: competition ELISA in solution (Friguet method); mAb after the second cloning
[3] = target: 20-mer V3 peptide of HIVMN (American Bio-Technologies) (HIV-1 strain MN); experiment: Friguet method, ligand in solution at equilibrium; V3 peptide of MN
[4] = target: 20-mer V3 peptide of HIVMN (American Bio-Technologies) (HIV-1 strain MN); experiment: Friguet ELISA method, V3 MN peptide
[5] = target: recombinant gp120 protein of HIVSF2 (produced in CHO cells) (HIV-1 isolate SF-2) (UniProt P03378); experiment: Friguet method; reference: V3SF-2 peptide
[6] = target: gp120 of HIVMN (HIV-1 strain MN) (UniProt P05877)
[7] = target: gp120 of HTLV-IIIB (HIV-1 isolate IIIB)
[8] = target: recombinant gp120IIIB (baculovirus, Repligen) (HIV-1 isolate IIIB) (UniProt P04578); experiment: Friguet method; reference: V3IIIB peptide
[9] = target: V3-SC peptide (HIV-1 isolate SC); experiment: ELISA on V3 peptide coated plates, mAb at 10 µg/ml
[10] = target: 20-mer V3 peptide of HIVSF2 (HIV-1 isolate SF-2); experiment: ELISA on V3 peptide coated plates, mAb at 10 µg/ml
[11] = target: V3-NY5 peptide (HIV-1 isolate NY5); experiment: ELISA on V3 peptide coated plates, mAb at 10 µg/ml
[12] = target: 23-mer peptide of the gp120 V3 loop of the MN strain of HIV-1 (HIV-1 strain MN); experiment: ELISA on V3 peptide coated plates, mAb at 10 µg/ml
[13] = target: 22-mer V3 peptide of HXB2 (HIV-1 HXB2 (IIIB)); experiment: ELISA on V3 peptide coated plates, mAb at 10 µg/ml
[14] = target: V3-CDC4 peptide (HIV-1 isolate CDC4); experiment: ELISA on V3 peptide coated plates, mAb at 10 µg/ml
[15] = target: V3-WM52 peptide (HIV-1 isolate WM52); experiment: ELISA on V3 peptide coated plates, mAb at 10 µg/ml
[16] = target: V3-RF peptide (HIV-1 isolate RF); experiment: ELISA on V3 peptide coated plates, mAb at 10 µg/ml
[17] = target: recombinant gp120 protein of HIVSF2 (produced in CHO cells) (HIV-1 isolate SF-2) (UniProt P03378); experiment: Friguet method, ligand in solution at equilibrium; rgp120 SF-2
[18] = target: gp120 of HIVMN (HIV-1 strain MN) (UniProt P05877); remark: listed apart in the source
[19] = target: gp120 of HTLV-IIIB (HIV-1 isolate IIIB); remark: listed apart in the source
[20] = target: recombinant gp120IIIB (baculovirus, Repligen) (HIV-1 isolate IIIB) (UniProt P04578); experiment: Friguet method, ligand in solution at equilibrium; rgp120 IIIB (row HXB2)
[21] = target: 22-mer V3 peptide of HXB2 (HIV-1 HXB2 (IIIB)); experiment: Friguet method, ligand in solution at equilibrium; V3 peptide of HXB2
[22] = target: 22-mer V3 peptide of HXB2 (HIV-1 HXB2 (IIIB)); experiment: competition ELISA in solution (Friguet method); mAb after the fourth cloning
[23] = target: 20-mer V3 peptide of HIVMN (American Bio-Technologies) (HIV-1 strain MN); experiment: competition ELISA in solution at equilibrium (Friguet method)
[24] = target: 20-mer V3 peptide of HIVSF2 (HIV-1 isolate SF-2); experiment: as above
[25] = target: 22-mer V3 peptide of HXB2 (HIV-1 HXB2 (IIIB)); experiment: as above
[26] = target: recombinant gp120 protein of HIVSF2 (produced in CHO cells) (HIV-1 isolate SF-2) (UniProt P03378); experiment: as above
[27] = target: 20-mer V3 peptide of HIVSF2 (HIV-1 isolate SF-2); experiment: as above; remark: listed apart in the source
[28] = target: hexapeptide RKRIHI (pin 6) (HIV-1 strain MN); experiment: pin ELISA, hexapeptide on plastic pin
[29] = target: hexapeptide NKRKRI (pin 4) (HIV-1 strain MN); experiment: pin ELISA, hexapeptide on plastic pin
[30] = target: hexapeptide KRIHIG (pin 7) (HIV-1 strain MN); experiment: pin ELISA, hexapeptide on plastic pin
[31] = target: hexapeptide GPGRAF (pin 12) (HIV-1 strain MN); experiment: pin ELISA, hexapeptide on plastic pin
[32] = target: hexapeptide RIHIGP (pin 8) (HIV-1 strain MN); experiment: pin ELISA, hexapeptide on plastic pin
[33] = target: hexapeptide YTTKNI (pin 18) (HIV-1 strain MN); experiment: pin ELISA, hexapeptide on plastic pin
[34] = target: hexapeptide KRKRIH (pin 5) (HIV-1 strain MN); experiment: pin ELISA, hexapeptide on plastic pin
[35] = target: hexapeptide RAFYTT (pin 15) (HIV-1 strain MN); experiment: pin ELISA, hexapeptide on plastic pin
[36] = target: hexapeptide IGPGRA (pin 11) (HIV-1 strain MN); experiment: pin ELISA, hexapeptide on plastic pin
[37] = target: hexapeptide PGRAFY (pin 13) (HIV-1 strain MN); experiment: pin ELISA, hexapeptide on plastic pin
[38] = target: hexapeptide HIGPGR (pin 10) (HIV-1 strain MN); experiment: pin ELISA, hexapeptide on plastic pin
[39] = target: hexapeptide FYTTKN (pin 17) (HIV-1 strain MN); experiment: pin ELISA, hexapeptide on plastic pin
[40] = target: hexapeptide GRAFYT (pin 14) (HIV-1 strain MN); experiment: pin ELISA, hexapeptide on plastic pin
[41] = target: hexapeptide AFYTTK (pin 16) (HIV-1 strain MN); experiment: pin ELISA, hexapeptide on plastic pin
[42] = target: hexapeptide IHIGPG (pin 9) (HIV-1 strain MN); experiment: pin ELISA, hexapeptide on plastic pin
[43] = target: hexapeptide TTKNII (pin 19) (HIV-1 strain MN); experiment: pin ELISA, hexapeptide on plastic pin
[44] = target: hexapeptide TKNIIG (pin 20) (HIV-1 strain MN); experiment: pin ELISA, hexapeptide on plastic pin
[45] = target: hexapeptide YNKRKR (pin 3) (HIV-1 strain MN); experiment: pin ELISA, hexapeptide on plastic pin
[46] = target: recombinant gp120 protein of HIVSF2 (produced in CHO cells) (HIV-1 isolate SF-2) (UniProt P03378); experiment: Friguet method; reference: the 20-mer SF-2 peptide
[47] = target: gp120 of HIVMN (HIV-1 strain MN) (UniProt P05877); remark: listed apart in the source

## human mAb 447-D (antibody)
[1]
  Kd: 900 nM
[2]
  Kd: 64000 nM
[3]
  Kd: 560 nM
[4]
  Kd: 560 nM
[5]
  fold stronger binding than to the V3SF-2 peptide: 90 fold
[6]
  neutralization dose 50%, according to Nara et al.: 0.052 µg/mL
  neutralization dose 90%, according to Nara et al.: 0.9 µg/mL
[7]
  neutralization dose 50%, according to Nara et al.: 1.8 µg/mL
  percent neutralization at the maximum concentration of 10 µg/ml: 71%
[8]
  fold stronger binding than to the V3IIIB peptide: 6 fold
[9]
  minimum antigen concentration giving positive results (µg/ml of V3 peptide used to coat): 0.01
[10]
  minimum antigen concentration giving positive results (µg/ml of V3 peptide used to coat): 0.01
[11]
  minimum antigen concentration giving positive results (µg/ml of V3 peptide used to coat): 0.1
[12]
  minimum antigen concentration giving positive results (µg/ml of V3 peptide used to coat): 0.01
[13]
  minimum antigen concentration giving positive results (µg/ml of V3 peptide used to coat): 0.2
[14]
  minimum antigen concentration giving positive results (µg/ml of V3 peptide used to coat): 0.1
[15]
  minimum antigen concentration giving positive results (µg/ml of V3 peptide used to coat): 0.2
[16]
  minimum antigen concentration giving positive results (µg/ml of V3 peptide used to coat): 0.4
[17]
  Kd: 10 nM
[18]
  50% neutralization, CEM-SS syncytium-forming assay, IgG concentration: 0.05 µg/mL
  90% neutralization, CEM-SS syncytium-forming assay, IgG concentration: 0.92 µg/mL
[19]
  50% neutralization, CEM-SS syncytium-forming assay, IgG concentration: 1.8 µg/mL
  90% neutralization, CEM-SS syncytium-forming assay, IgG concentration: > 10 µg/mL
[20]
  Kd: 3900 nM
[21]
  Kd: 24000 nM
[22]
  Kd: 16000 nM
[23]
  Kd: 560 nM
[24]
  Kd: 900 nM
[25]
  Kd: 24000 nM

## human mAb 257-D (antibody)
[4]
  Kd: 230 nM
[26]
  Kd: 41.6 nM
[27]
  Kd: 630 nM
[28]
  ELISA reactivity (absorbance units) (absorbance units): 1.78
[29]
  ELISA reactivity (absorbance units) (absorbance units): 0.288
[30]
  ELISA reactivity (absorbance units) (absorbance units): 1.59
[31]
  ELISA reactivity (absorbance units) (absorbance units): 0.208
[32]
  ELISA reactivity (absorbance units) (absorbance units): 0.276
[33]
  ELISA reactivity (absorbance units) (absorbance units): 0.259
[34]
  ELISA reactivity (absorbance units) (absorbance units): 0.259
[35]
  ELISA reactivity (absorbance units) (absorbance units): 0.333
[36]
  ELISA reactivity (absorbance units) (absorbance units): 0.163
[37]
  ELISA reactivity (absorbance units) (absorbance units): 0.456
[38]
  ELISA reactivity (absorbance units) (absorbance units): 0.156
[39]
  ELISA reactivity (absorbance units) (absorbance units): 0.273
[40]
  ELISA reactivity (absorbance units) (absorbance units): 0.272
[41]
  ELISA reactivity (absorbance units) (absorbance units): 0.233
[42]
  ELISA reactivity (absorbance units) (absorbance units): 0.13
[43]
  ELISA reactivity (absorbance units) (absorbance units): 0.219
[44]
  ELISA reactivity (absorbance units) (absorbance units): 0.164
[45]
  ELISA reactivity (absorbance units) (absorbance units): 0.256
[46]
  Difference (Kd of the SF-2 peptide against SF-2 recombinant): 15 fold
[18]
  50% neutralization, CEM-SS syncytium-forming assay, IgG concentration: 0.01 µg/mL
  90% neutralization, CEM-SS syncytium-forming assay, IgG concentration: 0.88 µg/mL
[47]
  neutralizing antibody titer (50%), MT-2 plaque assay, 1 hr, no complement: 3 ng/mL
  neutralizing antibody titer (50%), MT-2 plaque assay, 18 hr with human complement: 0.3 ng/mL
[23]
  Kd: 230 nM
[24]
  Kd: 220 nM

## human mAb 268-D (antibody)
[4]
  Kd: 590 nM
[28]
  ELISA reactivity (absorbance units) (absorbance units): 0.252
[29]
  ELISA reactivity (absorbance units) (absorbance units): 0.283
[30]
  ELISA reactivity (absorbance units) (absorbance units): 0.179
[31]
  ELISA reactivity (absorbance units) (absorbance units): 0.132
[32]
  ELISA reactivity (absorbance units) (absorbance units): 0.135
[33]
  ELISA reactivity (absorbance units) (absorbance units): 0.259
[34]
  ELISA reactivity (absorbance units) (absorbance units): 0.239
[35]
  ELISA reactivity (absorbance units) (absorbance units): 0.35
[36]
  ELISA reactivity (absorbance units) (absorbance units): 0.164
[37]
  ELISA reactivity (absorbance units) (absorbance units): 0.346
[38]
  ELISA reactivity (absorbance units) (absorbance units): 1.01
[39]
  ELISA reactivity (absorbance units) (absorbance units): 0.274
[40]
  ELISA reactivity (absorbance units) (absorbance units): 0.288
[41]
  ELISA reactivity (absorbance units) (absorbance units): 0.222
[42]
  ELISA reactivity (absorbance units) (absorbance units): 0.132
[43]
  ELISA reactivity (absorbance units) (absorbance units): 0.212
[44]
  ELISA reactivity (absorbance units) (absorbance units): 0.141
[45]
  ELISA reactivity (absorbance units) (absorbance units): 0.243
[18]
  50% neutralization, CEM-SS syncytium-forming assay, IgG concentration: 0.1 µg/mL
  90% neutralization, CEM-SS syncytium-forming assay, IgG concentration: 1 µg/mL
[47]
  neutralizing antibody titer (50%), MT-2 plaque assay, 1 hr, no complement: 23 ng/mL
  neutralizing antibody titer (50%), MT-2 plaque assay, 18 hr with human complement: 1.1 ng/mL
[23]
  Kd: 590 nM
[24]
  Kd: 2300 nM
